Experiment [1] has as its system tyrosine phosphorylation of STAT5 protein in T-47D human breast cancer cells. Nature of the experiment: hPRL induction of tyrosine phosphorylation of STAT5 protein (Example 8). The class given is cell-based. The text has this: Assay of hPRL induction of tyrosine phosphorylation of STAT5 protein. […] Tyrosyl phosphorylation of STAT 5 is a receptor mediated event and is thought to be an important step in ligand-induced signal transduction (Wakao et al., 1994, EMBO J. 13: 2182–2191; Kazansky et al., 1995, Mol. Endocrinol. 9:1598–1609; Waxman et al., 1995, J. Biol. Chem. 270:13262–13270). This assay was used to evaluate the ability of hPRL and hPRLA to inhibit induction of STAT 5 phosphorylation by wild type PRL.
Briefly, human breast cancer cells were plated in 12-well plates. After pre-incubation in serum-free DMEM for 2–3 hours, the cells were exposed to various concentration of hPRL and hPRLA in serum-free DMEM. The cells were incubated for 15 min at 37° C., washed once with PBS, and lysed in 300 μl lysis buffer (50 mM Tris-HCl, pH 6.8, 1% SDS, 1% β-mecaptoethanol, 0.1M DTT, 5% Sucrose, 100 uM Sodium Orthovanadate, and 0.6% bromphenol blue). Thirty microliters of cell lysates were subjected to 4–12.5% SDS-PAGE and immunoblot analysis using horse radish peroxidase (HRP)-conjugated anti-phosphotyrosine antibody PY20 and ECL reagent kit (Amersham, Ill.). Blots were then exposed to X-ray films and developed using standard procedures (Kodak, Rochester, N.Y.). This assay has been described in Chen et al., 1994, J. Biol. Chem. 269: 15892–15897; Chen et al., 1995, Endocrinol. 136:660–667; Wang et al., 1994, Proc. Natl. Acad. Sci. U.S.A. 91:1391–1395; Chen et al., 1995, Mol. Endocrinol. 9(3):292–302; Harding et al., 1996, J. Biol. Chem. 271(12):6708–6712.

Experiment [2] relates to MCF-7 human breast cancer cells. Nature of the experiment: Mixed cell culture assay with transfected L cells, MCF-7. The format is cell-based. The conditions noted are these: MCF-7, three days.
Experiment [3] deals with T47-D human breast cancer cells. Nature of the experiment: 96 well cell proliferation assay with conditioned media (MTS-PMS). The class given is cell-based. As to the method:
HPRLG129R Conditioned Media. The assay conditions were modified from that described by Ginsburg and Vonderharr (1995, Cancer Res. 55:2591–2595). T47-D cells were trypsinized and passed into 96 well plates in RPMI-1640 media containing 1% DCC-FCS in a volume of 100 μl/well. The optimal cell number/well for each cell line was pre-determined after titration assay. For T47-D cells, 15,000 cells/well were plated. The cells were allowed to settle and adhere overnight (12–18 hours) and subsequently various concentrations of either hPRL, hRPL-G129R, E2 or 4-OH-Tamoxifen in a total volume of 100 μl of culture media were added. Purified hPRL (kindly provided by Dr. Parlow, National Hormone & Pituitary Program, NIH) was used as a positive control for hPRL produced from stable L cells. Cells were incubated for an additional 96 hours at 37° C. in a humidified 5% CO2 incubator. After incubation, MTS-PMS solution (Cell Titer 96 Aqueous kit, Promega Corp.) was added to each well, following the manufacturer's instructions. Plates were read at 490 nm using a BIO-RAD benchmark microplate reader. The experiments were carried out in triplicates and repeated three to six times for each cell line.

Experiment [4] deals with T-47D human breast cancer cells. Nature of the experiment: TUNEL assay, T-47D. The format is cell-based. The procedure:
Cell Culture. T-47D cells obtained from ATCC were grown in RPMI 1640 (phenol red free), supplemented with 10% FBS (GIBCO BRL). BT-474 cells were grown in RPMI 1640 medium (phenol red free) supplemented with 10% FBS and ATCC recommended supplements. MCF-7 cells were grown in DMEM medium (phenol red free), supplemented with 10% FBS. The cells were grown at 37° C. in a humid atmosphere in the presence of 5% CO2. The MDA-MB-134 cells were grown in Leibovitz's L-15 medium supplemented with 20% FBS and grown in CO2 free atmosphere. The breast cancer cells were trypsinized (0.02% Trypsin—EDTA) and grown in their respective media (phenol red free) supplemented with 10% CSS (Charcoal stripped serum) for a week. Subsequently the cells were trypsinized again and plated onto an 8 chambered slide system (Lab Tek II) at a confluence of 60–70% per chamber. The next day treatments were performed on the breast cancer cells using their respective media(phenol red free), supplemented with 1% CSS. The MDA-MB-134 VI cells were grown in phenol red containing medium, but with the same serum conditions as the other breast cancer cells.
Terminal deoxynucleotidly transferase mediated dUTP nick end labeling (TUNEL) assay. Nicks of the fragmented DNA are labeled at their 3-OH ends. The fluorescein-labeled dUTP is incorporated at the 3-OH ends by using the enzyme terminal deoxynucleotidyl transferase. After the assigned period of treatment the chambers were dismantled as per the manufacturer's instructions and the TUNEL assay (Apoptosis detection system, Fluorescein- Promega) was performed as per the manufacturer's instructions. The slide was examined under a FITC filter using an Olympus IX 70 microscope system.

Experiment [5] has as its system T47-D human breast cancer cells. Kind of experiment: Light microscopic examination of T47-D cells. The format is cell-based. The conditions noted are these: single dose 200 ng/ml, 4-day incubation. The procedure: FIGS. 14A–E. Light microscopic examination of T47-D human breast cancer cells after single dose of 200 ng/ml hPRL (15B); 200 ng/ml of HPRL-G129R (15C); 200 nM of E2 (15D); or 200 nM of 4-OH-Tamoxifen (15E) treatment after 4-day incubation as compared to control (15A).×200.
Human Breast Cancer Cell Proliferation Assays. Human PRL and hPRL-G129R were tested further for their ability to stimulate/inhibit breast cancer cell proliferation in cell culture. Light microscopic examination of breast cancer cell proliferation after hPRL, hPRL-G129R, E2 and 4-OH-Tamoxifen is shown in FIGS. 14A–E. It is clear that there is a significant difference in cell density between hPRL (15B), hPRL-G129R(15C) and E2 (15D), 4-OH-Tamoxifen (15E) treated cells.

For another experiment, the system named is rat Nb2 T lymphoma cells. The following applies: Goffin et al., 1994; cited from earlier work.

B1: hPRL-G129R: variant of human prolactin having a substitution of the glycine at position 129 with an arginine residue; prolactin receptor antagonist (protein)
chain: LPICPGGAARCQVTLRDLFDRAVVLSHYIHNLSSEMFSEFDKRYTHGRGFITKAINSCHTSSLATPEDKEQAQQMNQKDFLSLIVSILRSWNEPLYHLVTEVRGMQEAPEAILSKAVEIEEQTKRLLERMELIVSQVHPETKENEIYPVWSGLPSLQMADEESRLSAYYNLLHCLRRDSHKIDNYLKLLKCRIIHNNNC
For B1, the “induction of phosphorylation of STAT5 proteins” value in experiment [1] (T-47D cells, 5 nM of hormone alone, Western blot FIG. 3) is listed as “absent”. In addition, the “hPRL-induced phosphorylation of STAT5 proteins in presence of hPRLA” value was “partially eliminated” in experiment [1] (equal amounts: 5 nM hPRL and 5 nM hPRLA (lane 4)); “undetectable” in experiment [1] (excess of hPRLA: 5 nM hPRL and 25 nM hPRLA (lane 5)). The “effect on proliferation in mixed cell culture” value in experiment [2] is reported as “inhibitory effect”. In addition, the “inhibitory effect of combination” value in experiment [3] (100 nM 4-OH-Tamoxifen in the presence of 100 ng/ml hPRL-G129R) is “approximately 32 % of control”. The “effect on hPRL induced cell proliferation” value was “stop the stimulatory effect of hPRL” in experiment [3] (1:1 molar ratio hPRL-G129R:hPRL) and “inhibited cell proliferation” in experiment [3] (2:1 molar ratio hPRL-G129R:hPRL). Besides, the “maximum inhibition by a single dose” value in experiment [3] (4-OH-Tamoxifen at 500 nM, T47-D) is reported as 25 % of control. Also, the “inhibitory potency compared with maximal 500 nM dose of 4-OH-Tamoxifen” value in experiment [3] (hPRL-G129R 150 ng/ml) is on record as “more potent”. The “inhibitory effects of combination compared to maximum dose of either agent” value in experiment [3] (hPRL-G129R applied together with 4-OH-Tamoxifen) is given as “doubled”. In experiment [3] (single dose, four-day incubation), the “effect on T47-D proliferation, dose response” value is reported as “dose dependent inhibitory effects”. For the same molecule, in experiment [4] (50 ng/ml, 2 hours), the “DNA fragmentation after 2 hours of treatment” value was “apparent”. For the same molecule, the “apoptosis at physiological concentration” value in experiment [4] (50 ng/ml, 24 h) is reported as “apoptosis occurs”. In addition, the “induction of apoptosis DNA fragmentation” value in experiment [4] (250 ng G129R, 24 hours) was “induced apoptosis”. Further, the “competition between G129R and hPRL on DNA fragmentation” value in experiment [4] (1:1 ratio (125 ng/ml each)) is given as “able to compete with hPRL”. For the same molecule, the “apoptosis (DNA fragmentation), dose response” value in experiment [4] (24 h treatment) is “induced apoptosis in a dose dependent manner”. The “overall cell condition under light microscopy” value in experiment [5] was “not as healthy”. Besides, in the experiment on rat Nb2 T lymphoma cells, the “activity in Nb2 proliferation assay” value is listed as “weak agonist”.

These data come from patent publication US7115556B2, “Use of anti-prolactin agents to treat proliferative conditions” (Greenville Hospital System, priority 1998, dated 2006).
